We go through eleven molecules from US20230265151A1, “GIP/GLP1 CO-AGONIST COMPOUNDS” (priority 2020, published 2023).

Substitutions are numbered along the chain they refer to. *1 amine or outer side, *2 acyl side, *3 side chain or, on linkers, in order; H or OH if unused. Where no end group is shown, it is not given here. Side-chain parts run from the residue outwards. [ ]: non-standard residue; d: D form. The star is where a group is joined. Decanoyl(10-(4-HOOC-PhO)) = O=C(O)c1ccc(OCCCCCCCCCC(=O)*)cc1; αMePhe(2-F) = C[C@](N)(Cc1ccccc1F)C(=O)O; γGlu = O=C(O)[C@H](CCC(=O)[*:2])N[*:1]; C14 diacid = O=C(O)CCCCCCCCCCCCC(=O)*; αMeY = C[C@](N)(Cc1ccc(O)cc1)C(=O)O; αMeL = CC(C)C[C@](C)(N)C(=O)O; Nle = CCCC[C@H](N)C(=O)O; Orn = NCCC[C@H](N)C(=O)O; AEEA = NCCOCCOCC(=O)O; Om = not defined here; Aib = CC(C)(N)C(=O)O Where only a bound is given, the exact number is not on record here.

Targets include human GLP-1 receptor (human, UniProt P43220 24-463); human glucagon receptor (human, UniProt P47871 26-477); hGLP-1R (Homo sapiens, UniProt P43220).
Assay in all cases: cell-based or functional assay
Another assay concerns the target T1, human GIP receptor (human, UniProt P48546 22-466).
T1 sequence (looked up): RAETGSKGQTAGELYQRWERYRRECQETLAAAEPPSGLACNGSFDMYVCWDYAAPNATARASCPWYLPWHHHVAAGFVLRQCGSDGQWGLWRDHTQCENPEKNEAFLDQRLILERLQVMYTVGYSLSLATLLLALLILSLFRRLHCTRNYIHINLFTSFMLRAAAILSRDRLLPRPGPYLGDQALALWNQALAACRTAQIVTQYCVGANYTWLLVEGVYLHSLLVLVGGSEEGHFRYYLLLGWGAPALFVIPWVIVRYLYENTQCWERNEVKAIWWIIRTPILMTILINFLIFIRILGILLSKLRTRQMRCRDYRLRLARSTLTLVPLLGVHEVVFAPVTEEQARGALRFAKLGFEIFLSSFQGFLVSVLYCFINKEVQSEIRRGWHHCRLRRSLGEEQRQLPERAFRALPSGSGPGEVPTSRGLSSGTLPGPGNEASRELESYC

Assay [1] deals with human glucagon receptor (human) (UniProt P47871).
The target in assay [2] is T2, human GIP receptor (human) (UniProt P48546).
T2 sequence (looked up): T1 sequence (looked up)

Chain of human glucagon receptor (P47871 26-477): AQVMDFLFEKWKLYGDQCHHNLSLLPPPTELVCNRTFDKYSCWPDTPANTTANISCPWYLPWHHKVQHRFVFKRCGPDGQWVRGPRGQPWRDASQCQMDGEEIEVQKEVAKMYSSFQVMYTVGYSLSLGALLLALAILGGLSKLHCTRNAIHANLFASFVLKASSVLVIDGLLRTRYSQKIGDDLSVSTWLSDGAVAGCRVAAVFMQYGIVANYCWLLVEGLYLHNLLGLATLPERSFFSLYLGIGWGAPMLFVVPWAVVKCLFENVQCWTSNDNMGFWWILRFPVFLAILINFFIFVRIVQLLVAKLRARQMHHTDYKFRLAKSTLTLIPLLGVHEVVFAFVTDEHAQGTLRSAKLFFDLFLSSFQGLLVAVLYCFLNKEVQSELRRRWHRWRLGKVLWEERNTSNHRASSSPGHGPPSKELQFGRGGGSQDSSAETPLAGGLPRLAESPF

B1: Example 478 (peptide)
peptide: YXEGTXTSDYXIXLDXIAQXXFIKXLIKGGPSSGAPPPS
modifications: Y-Aib-EGT-αMeF(2F)-TSDY-Aib-I-αMeL-LD-Orn-IAQ-Aib-Orn-FIK((2-[2-(2-Amino-ethoxy)-ethoxy]-acetyl)3-(γ-Glu)-CO-(CH2)12-CO2H)-αMeY-LIK((2-[2-(2-Amino-ethoxy)-ethoxy]-acetyl)3-(γ-Glu)-CO-(CH2)12-CO2H)GGPSSGAPPPS-NH2
In the case of B1, the “cAMP EC50 (1.0% HSA)” value with human GLP-1 receptor was 6.16 nM; with human glucagon receptor, above 9950 nM; with human GIP receptor it was 0.517 nM. In addition, in the assay with human GLP-1 receptor, the “cAMP Emax (1.0% HSA)” value stood at 108%.

B2: Example 480 (peptide)
peptide: B1 peptide with I17Q
modifications: Y-Aib-EGT-αMeF(2F)-TSDY-Aib-I-αMeL-LD-Orn-QAQ-Aib-Orn-FIK((2-[2-(2-Amino-ethoxy)-ethoxy]-acetyl)2-(γ-Glu)2-CO-(CH2)12-CO2H)-αMeY-LIK((2-[2-(2-Amino-ethoxy)-ethoxy]-acetyl)2-(γ-Glu)2-CO-(CH2)12-CO2H)GGPSSGAPPPS-NH2
B2: the “cAMP EC50 (1.0% HSA)” value was 2.65 nM with human GLP-1 receptor, above 9950 nM with human glucagon receptor and 0.29 nM in the assay with human GIP receptor. Further, the “cAMP Emax (1.0% HSA)” value in the assay with human GLP-1 receptor amounted to 104%.

B3: Example 481 (peptide)
peptide: B1 peptide
modifications: Y-Aib-EGT-αMeF(2F)-TSDY-Aib-I-αMeL-LD-Orn-IAQ-Aib-Orn-FIK((2-[2-(2-Amino-ethoxy)-ethoxy]-acetyl)3-(γ-Glu)--(10-(4-carboxyphenoxy)decanoyl))-αMeY-LIK((2-[2-(2-Amino-ethoxy)-ethoxy]-acetyl)3-(γ-Glu)--(10-(4-carboxyphenoxy)decanoyl))GGPSSGAPPPS-NH2
In the case of B3, the “cAMP EC50 (1.0% HSA)” value is 6.16 nM in the assay with human GLP-1 receptor, above 9950 nM in the assay with human glucagon receptor and 0.467 nM with human GIP receptor. Besides, in the assay with human GLP-1 receptor, the “cAMP Emax (1.0% HSA)” value worked out at 112%.

B4: Example 479 (peptide)
peptide: B1 peptide with I17Q
modifications: Y-Aib-EGT-αMeF(2F)-TSDY-Aib-I-αMeL-LD-Orn-QAQ-Aib-Orn-FIK((2-[2-(2-Amino-ethoxy)-ethoxy]-acetyl)3-(γ-Glu)-CO-(CH2)12-CO2H)-αMeY-LIK((2-[2-(2-Amino-ethoxy)-ethoxy]-acetyl)3-(γ-Glu)-CO-(CH2)12-CO2H)GGPSSGAPPPS-NH2
Turning to B4, the “cAMP EC50 (1.0% HSA)” value is 2.55 nM in the assay with human GLP-1 receptor, above 9950 nM with human glucagon receptor and 0.196 nM with human GIP receptor. The “cAMP Emax (1.0% HSA)” value with human GIP receptor was determined as 89.5%.

B5: Example 491 (peptide)
peptide: B1 peptide with Y10X, X11S, I17Q
modifications: Y-Aib-EGT-αMeF(2F)-TSD-hY-SI-αMeL-LD-Orn-QAQ-Aib-Orn-FIK((2-[2-(2-Amino-ethoxy)-ethoxy]-acetyl)2-(γ-Glu)-CO-(CH2)12-CO2H)-αMeY-LIK((2-[2-(2-Amino-ethoxy)-ethoxy]-acetyl)2-(γ-Glu)-CO-(CH2)12-CO2H)GGPSSGAPPPS-NH2
As for B5, the “cAMP EC50 (1.0% HSA)” value with human GLP-1 receptor is 5.51 nM; with human glucagon receptor, above 9950 nM; with human GIP receptor, 1.08 nM. In addition, the “cAMP Emax (1.0% HSA)” value with human GIP receptor was 87.5%.

B6: Example 492 (peptide)
peptide: B1 peptide with I17Q
modifications: Y-Aib-EGT-αMeF(2F)-TSDY-Aib-I-αMeL-LD-Orn-QAQ-Aib-Orn-FIK((2-[2-(2-Amino-ethoxy)-ethoxy]-acetyl)2-(γ-Glu)--C10_4CP)-αMeY-LIK((2-[2-(2-Amino-ethoxy)-ethoxy]-acetyl)2-(γ-Glu)--C10_4CP)GGPSSGAPPPS-NH2
As to B6, the “cAMP EC50 (1.0% HSA)” value with human GLP-1 receptor is 4.31 nM; with human glucagon receptor it was above 9950 nM; in the assay with human GIP receptor, 0.371 nM. Moreover, the “cAMP Emax (1.0% HSA)” value in the assay with human GLP-1 receptor amounted to 104%; with human GIP receptor, 88.7%.
On to Y[Aib]EGT[αMePhe(2-F)]TSD[Nle]SI[αMeL]LD[Orn]QAQ[Aib][Orn]FIK([AEEA-AEEA-γGlu-C14 diacid])[αMeY]LIK([AEEA-AEEA-γGlu-C14 diacid])GGPSSGAPPPS-NH2 [Example 490], for which the “cAMP EC50 (1.0% HSA)” value was 7.68 nM with human GLP-1 receptor, above 9950 nM in the assay with human glucagon receptor and 0.976 nM with human GIP receptor. The “cAMP Emax (1.0% HSA)” value with human GIP receptor was 97.1%.

B7: Example 359 (peptide)
peptide: YXEGTXTSDXXIXLDXKAQXEFIXXLIEGGPSSGAPPPSK
modifications: Y-Aib-EGT-αMeF(2F)-TSD-4Pal-Aib-I-αMeL-LD-Orn-K((2-[2-(2-Amino-ethoxy)-ethoxy]-acetyl)2-(γ-Glu)-CO-(CH2)12-CO2H)AQ-Aib-EFI-(D-Glu)-αMeY-LIEGGPSSGAPPPSK((2-[2-(2-Amino-ethoxy)-ethoxy]-acetyl)2-(γ-Glu)-CO-(CH2)12-CO2H)-NH2
As to B7, the cAMP EC50 in assay [1] was above 10100 nM; in the assay with hGLP-1R, 1.18 nM; in assay [2], 0.0261 nM. In addition, the cAMP Emax in the assay with hGLP-1R was 104%; in assay [2], 103%. The “cAMP EC50 (1.0% HSA)” value is 40.5 nM with human GLP-1 receptor, above 9950 nM in the assay with human glucagon receptor and 1.58 nM with human GIP receptor. The results for the “cAMP Emax (1.0% HSA)” value with human GLP-1 receptor and with human GIP receptor were 95.1% and 81%, respectively.

B8: Example 362 (peptide)
peptide: B7 peptide
modifications: Y-Aib-EGT-αMeF(2F)-TSD-4Pal-Aib-I-αMeL-LD-Orn-K((2-[2-(2-Amino-ethoxy)-ethoxy]-acetyl)-(y-Glu)-(10-(4-carboxyphenoxy)decanoyl))AQ-Aib-EFI-(D-Glu)-αMeY-LIEGGPSSGAPPPSK((2-[2-(2-Amino-ethoxy)-ethoxy]-acetyl)-(γ-Glu)-(10-(4-carboxyphenoxy)decanoyl))-NH2
Take B8: the values for the cAMP EC50 (in assay [1]; with hGLP-1R; in assay [2]) were above 10100 nM, 0.34 nM and 0.0131 nM, respectively. The molecule further registered a cAMP Emax with hGLP-1R of 109%. In addition, the “cAMP EC50 (1.0% HSA)” value is 29.9 nM in the assay with human GLP-1 receptor, above 9950 nM with human glucagon receptor and 0.936 nM with human GIP receptor.

B9: Example 353 (peptide)
peptide: Y[Aib]EGT[αMePhe(2-F)]TSDV[Aib]I[αMeL]LD[Orn]K([AEEA-AEEA-γGlu-Decanoyl(10-(4-HOOC-PhO))])AQ[Aib][Om]FI[dE][αMeY]LIK([AEEA-AEEA-γGlu-Decanoyl(10-(4-HOOC-PhO))])GGPSSGAPPPS-NH2
modifications: reading uncertain; also: printed as Y-Aib-EGT-αMeF(2F)-TSDV-Aib-I-αMeL-LD-Orn-K((2-[2-(2-Amino-ethoxy)-ethoxy]-acetyl)2-(γ-Glu)-(10-(4-carboxyphenoxy)decanoyl))AQ-Aib-Om-FI-(D-Glu)-αMeY-LIK((2-[2-(2-Amino-ethoxy)-ethoxy]-acetyl)2-(γ-Glu)-(10-(4-carboxyphenoxy)decanoyl))GGPSSGAPPPS-NH2
With B9, the cAMP EC50 in assay [1] is above 9950 nM; with hGLP-1R it was 0.203 nM; in assay [2], 0.0249 nM. Also, the cAMP Emax was 98% in the assay with hGLP-1R and 98.2% in assay [2]. Further, the “cAMP EC50 (1.0% HSA)” value in the assay with human GLP-1 receptor was 7.12 nM; with human glucagon receptor, above 9950 nM; in the assay with human GIP receptor, 5.35 nM. The “cAMP Emax (1.0% HSA)” value with human GLP-1 receptor was found to be 92.5%; with human GIP receptor, 84.8%.

B10: Example 357 (peptide)
peptide: YXEGTXTSDXXIXLDXKAQXKFIXXLIEGGPSSGAPPPS
modifications: Y-Aib-EGT-αMeF(2F)-TSD-4Pal-Aib-I-αMeL-LD-Orn-K((2-[2-(2-Amino-ethoxy)-ethoxy]-acetyl)2-(γ-Glu)-CO-(CH2)12-CO2H)AQ-Aib-K((2-[2-(2-Amino-ethoxy)-ethoxy]-acetyl)2-(γ-Glu)-CO-(CH2)12-CO2H)FI-(D-Glu)-αMeY-LIEGGPSSGAPPPS-NH2
In the case of B10, the cAMP EC50 was above 10100 nM in assay [1], 0.649 nM in the assay with hGLP-1R and 0.011 nM in assay [2]. For the same molecule, the cAMP Emax in the assay with hGLP-1R worked out at 107%; in assay [2], 99.9%. The “cAMP EC50 (1.0% HSA)” value was 36.2 nM with human GLP-1 receptor, above 9950 nM with human glucagon receptor and 1.19 nM with human GIP receptor. Besides, the “cAMP Emax (1.0% HSA)” value with human GLP-1 receptor was found to be 92.8%.
